# Experimental data taken from PMC10635007.
# What was measured:
# [1] = target: E-cadherin control (expressed without FUT2; without terminal fucosylation) (UniProt P12830); experiment: atomic force microscopy
# [2] = target: FUT2-fucosylated E-cadherin (co-expressed with FUT2; with terminal fucosylation) (UniProt P12830); experiment: atomic force microscopy
Substance,mean maximum adhesion force [1],mean maximum adhesion force [2]
E-cadherin control (expressed without FUT2; without terminal fucosylation) (from UniProt P12830 23-882) (natural protein),63.5 nN,
FUT2-fucosylated E-cadherin (co-expressed with FUT2; with terminal fucosylation) (from UniProt P12830 23-882) (natural protein),,79.8 nN
